Reference: patent publication US20260139049A1 (PEDIATRIC IMMUNITY AND HEALTHCARE GUANGZHOU BIOTECHNOLOGY, published 2026)
Substitutions are numbered along the chain they refer to.

Legend:
human CLDN6 [1] = target: T1, human CLDN6 (human, UniProt P56747 1-220); assay: FACS on 293T-CLDN6 cells, 10 µg/mL
T1 construct: whole, on cells; four-transmembrane protein; also called claudin-6; HEK293T-CLDN6
T1 sequence (looked up): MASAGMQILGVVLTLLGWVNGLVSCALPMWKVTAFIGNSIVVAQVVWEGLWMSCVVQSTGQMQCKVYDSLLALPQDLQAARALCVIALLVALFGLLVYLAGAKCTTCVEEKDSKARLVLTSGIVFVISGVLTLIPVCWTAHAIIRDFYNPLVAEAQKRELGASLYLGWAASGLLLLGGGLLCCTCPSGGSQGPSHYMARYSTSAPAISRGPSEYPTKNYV

human CLDN6 [2] = target: T1, human CLDN6; assay: ratio of FACS signals on CLDN6 cells over CLDN9 cells
Procedure: (§1) 50 μL of an antibody to be tested was added to a 96-well plate, then 1× 10⁵ cells were added to each well, and incubation was conducted at 4° C. for 1 h. Cells were washed three times with PBS. […] Finally, cells were washed three times with PBS, and signals were read using FACS. Binding capacities of the antibody to CLDN9, CLDN3, and CLDN4 were analyzed separately based on detection data.

human CLDN6 [3] = target: T1, human CLDN6; assay: FACS on HEK293T-CLDN6 cells
Procedure: (§2) To detect a binding capacity of a chimeric or humanized antibody to CLDN6, a CLDN6-expressing cell line HEK293T-CLDN6 and a CLDN6-negative control cell line HEK293T were washed three times with PBS. 1×10⁵ test cells and 50 μL of an antibody solution to be tested were added to a 96-well plate, and incubated at 4° C. for 1 h. The cells were then washed three times with PBS. […] Finally, cells were washed three times with PBS, and signals were read using FACS.
(§3) An EC50 value (a concentration of an antibody that binds to half of binding sites at equilibrium) is calculated through nonlinear regression.

[4] = target: T2, monkey CLDN6 (Cyno CLDN6) (monkey (Cyno)); assay: FACS on CHO-K1-Cyno CLDN6 cells
T2 construct: whole, on cells; also called CHO-K1-Cyno CLDN6

human CLDN4 = target: T3, human CLDN4 (human, UniProt O14493 1-209); assay: FACS on 293T-CLDN4 cells, 10 µg/mL
T3 construct: whole, on cells; also called HEK293T-CLDN4
T3 sequence (looked up): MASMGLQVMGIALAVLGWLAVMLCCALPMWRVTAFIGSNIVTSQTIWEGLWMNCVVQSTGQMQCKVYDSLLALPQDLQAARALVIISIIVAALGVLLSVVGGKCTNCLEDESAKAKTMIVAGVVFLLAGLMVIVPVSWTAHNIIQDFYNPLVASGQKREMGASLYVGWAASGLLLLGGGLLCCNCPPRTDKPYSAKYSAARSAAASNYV
Procedure: as §1

human CLDN6 [5] = target: T1, human CLDN6; assay: FACS on PA-1 tumour cells; target on the cells taken as CLDN6
Procedure: (§4) The specific binding of a chimeric antibody to a tumor cell was detected by FACS, and an EC50 value was calculated accordingly to evaluate an inhibitory effect of the chimeric antibody on the tumor cell.
as §1, with “1×10⁵” for “1× 10⁵”, “A binding capacity” for “Binding capacities”, “each tumor cell was” for “CLDN9, CLDN3, and CLDN4 were”, “analyzed” for “analyzed separately”

human CLDN6 [6] = target: T1, human CLDN6; assay: ratio of FACS Geom.Mean on 293T-CLDN6 over 293T-CLDN9, 10 µg/mL
Procedure: as §1

human CLDN9 = target: T4, human CLDN9 (human, UniProt O95484 1-217); assay: FACS on 293T-CLDN9 cells, 10 µg/mL
T4 construct: whole, on cells; also called HEK293T-CLDN9
T4 sequence (looked up): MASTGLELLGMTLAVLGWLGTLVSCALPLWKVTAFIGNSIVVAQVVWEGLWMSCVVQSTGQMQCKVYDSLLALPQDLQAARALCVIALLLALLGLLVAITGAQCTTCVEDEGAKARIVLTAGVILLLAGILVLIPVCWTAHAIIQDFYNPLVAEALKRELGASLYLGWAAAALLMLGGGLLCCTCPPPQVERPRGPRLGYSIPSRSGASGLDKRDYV
Procedure: as §1

human CLDN6 [7] = target: T1, human CLDN6; assay: FACS on HepG2 tumour cells; target on the cells taken as CLDN6
Procedure: as §4
as §1, with “1×10⁵” for “1× 10⁵”, “A binding capacity” for “Binding capacities”, “each tumor cell was” for “CLDN9, CLDN3, and CLDN4 were”, “analyzed” for “analyzed separately”

mouse CLDN6 = target: T5, mouse CLDN6 (mouse, UniProt Q9Z262 1-219); assay: FACS on CHO-K1-Mouse CLDN6 cells
T5 construct: whole, on cells; also called CHO-K1-Mouse CLDN6
T5 sequence (looked up): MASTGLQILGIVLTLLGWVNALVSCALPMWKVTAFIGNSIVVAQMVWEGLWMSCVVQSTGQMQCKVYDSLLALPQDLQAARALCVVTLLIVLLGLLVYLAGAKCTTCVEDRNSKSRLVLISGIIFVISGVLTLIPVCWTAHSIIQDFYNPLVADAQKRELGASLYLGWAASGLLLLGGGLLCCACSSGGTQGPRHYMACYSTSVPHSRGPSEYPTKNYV

human CLDN3 = target: T6, human CLDN3 (human, UniProt O15551 1-220); assay: FACS on 293T-CLDN3 cells, 10 µg/mL
T6 construct: whole, on cells; also called HEK293T-CLDN3
T6 sequence (looked up): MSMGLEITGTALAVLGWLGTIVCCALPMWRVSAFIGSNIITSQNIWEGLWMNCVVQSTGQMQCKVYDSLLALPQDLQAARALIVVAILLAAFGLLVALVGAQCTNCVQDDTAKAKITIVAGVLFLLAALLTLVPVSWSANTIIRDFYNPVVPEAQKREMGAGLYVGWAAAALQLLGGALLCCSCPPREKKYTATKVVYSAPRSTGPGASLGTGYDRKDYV
Procedure: as §1

human CLDN6 [8] = target: T1, human CLDN6; assay: FACS on PA-1 tumour cells; target on the cells taken as CLDN6; remark: listed apart in the source
Procedure: as §1, with “1×10⁵” for “1× 10⁵”, “A binding capacity” for “Binding capacities”, “each tumor cell was” for “CLDN9, CLDN3, and CLDN4 were”, “analyzed” for “analyzed separately”

human CLDN6 [9] = target: T1, human CLDN6; assay: FACS on HepG2 tumour cells; target on the cells taken as CLDN6; remark: listed apart in the source
Procedure: as §1, with “1×10⁵” for “1× 10⁵”, “A binding capacity” for “Binding capacities”, “each tumor cell was” for “CLDN9, CLDN3, and CLDN4 were”, “analyzed” for “analyzed separately”

human CLDN6 [10] = target: T1, human CLDN6; assay: cell-based or functional assay
human CLDN6 [11] = target: T1, human CLDN6; assay: cell-based or functional assay; remark: listed apart in the source
human CLDN6 [12] = target: T1, human CLDN6; assay: FACS on HEK293T-CLDN6 cells; remark: listed apart in the source
Procedure: as §2, §3

human CLDN6 [13] = target: T1, human CLDN6; assay: binding to CLDN6-expressing cells; method not given

B1: 58G3C7 (antibody, human IgG1, kappa, V domains shown)
VH: EVQLVESGGGLVKPGGSLKLSCAASGFTFSNYAMSWVRQTPEKRLEWVATISDGGSYTSYPDNIKGRFTISRDNAKNNLYLQVTHLKSEDTAMYYCARDAILITTAGFAYWGQGTLLTVSA
VL: DIQMTQSSSSFSVSLGDRVTITCKASEDIYNRLAWYQQKPGNAPRLLISATTSLETGVPSRFSGSGSGKDYTLSITSLQTEDVATYYCQQYWSFPRTFGGGTKLEVKR
notes: chimeric: murine variable regions on human IgG1 constant regions
Geom.Mean (human CLDN6 [1]): 33800
CLDN6/CLDN9 signal ratio (human CLDN6 [2]): ~50 fold
EC50 (human CLDN6 [3]): 0.135 µg/mL
EC50 [4]: 0.16 µg/mL
Geom.Mean (human CLDN4): 8440
EC50 (human CLDN6 [5]): 0.232 µg/mL
CLDN6/CLDN9 ratio (human CLDN6 [6]): 46
Geom.Mean (human CLDN9): 731

B2: 51C10H4 (antibody, human IgG1, kappa, V domains shown)
VH: EVQLQQSGPELVKPGASVKMSCKASGYTFTDYNMHWVKKSHGKSLEWIGYVNPNNGATSYNQKFKGKATLTVNKSSSTAYMELRSLTSEDSAVYNCARWDGYVYYYGLDYWGQGTSVTVSS
VL: DIQMTQSSSYLSVSLGGRVTITCKASDHINNWLAWYQQKPGNAPRLLISGATSLETGVPSRFSGSGSGKDYTLSITSLQTEDVATYYCQQYWSTPYTFGGGTKLEIKR
notes: chimeric IgG1
Geom.Mean (human CLDN6 [1]): 44900
CLDN6/CLDN9 signal ratio (human CLDN6 [2]): ~200 fold
EC50 (human CLDN6 [7]): 0.294 µg/mL
EC50 (mouse CLDN6): 0.935 µg/mL
EC50 (human CLDN6 [3]): 0.354 µg/mL
Geom.Mean (human CLDN3): 103
EC50 (human CLDN6 [8]): 0.34 µg/mL
EC50 (human CLDN6 [9]): 0.49 µg/mL
EC50 [4]: 0.722 µg/mL
CDC dose-response fit: EC50 (human CLDN6 [10]): 0.178 µg/mL
CDC dose-response fit: LogEC50 (human CLDN6 [10]): -0.75
Geom.Mean (human CLDN4): 210
EC50 (human CLDN6 [5]): 0.538 µg/mL
ADCC dose-response fit: EC50 (human CLDN6 [11]): 0.0483 µg/mL
ADCC dose-response fit: LogEC50 (human CLDN6 [11]): -1.32
CLDN6/CLDN9 ratio (human CLDN6 [6]): 181
Geom.Mean (human CLDN9): 248
EC50 (human CLDN6 [12]): 0.235 µg/mL

B3: 47D5D6 (antibody, human IgG1, kappa, V domains shown)
VH: EVQLVESGGDLVKPGGSLKLSCAASGFTFSSYGMSWVRQTPDKRLEWVATISSGGSYTYYPDSVKGRFTISRDNAKNTLYLQMSSLKSEDTAMYYCARPHYVSSYAMDYWGQGTSVTVSS
VL: B1 VL with A50G, T51A, F94T, R96P, V106I
notes: as for B1
Geom.Mean (human CLDN6 [1]): 33000
CLDN6/CLDN9 signal ratio (human CLDN6 [2]): ~50 fold
EC50 (mouse CLDN6): 2.09 µg/mL
EC50 (human CLDN6 [3]): 1.04 µg/mL
Geom.Mean (human CLDN3): 151
EC50 [4]: 1.94 µg/mL
Geom.Mean (human CLDN4): 5620
CLDN6/CLDN9 ratio (human CLDN6 [6]): 77
Geom.Mean (human CLDN9): 428

B4: 51C10-M4 (antibody, human IgG1, kappa, V domains shown)
VH: B2 VH with D100E
VL: B2 VL
notes: 51C10H4 with D of DG in heavy-chain CDR3 changed to E; also called improved antibody 51C10-M4
binding result (human CLDN6 [13]): binds

B5: 51C10-M2 (antibody, human IgG1, kappa, V domains shown)
VH: B2 VH with N55Q
VL: B2 VL
notes: 51C10H4 with N of NG in heavy-chain CDR2 changed to Q; also called improved antibody 51C10-M2
binding result (human CLDN6 [13]): binds
